Reference: patent publication US20210130437A1

Target: human PD-1 and human TIGIT co-expressed on Jurkat cells (Jurkat/PD-1/TIGIT cells) (human)
Experiment: flow cytometry, Jurkat/PD-1/TIGIT cells

Sequence of human PD-1 and human TIGIT co-expressed on Jurkat cells (Jurkat/PD-1/TIGIT cells) (human) (chain, as listed by the source, chain 1 of 2): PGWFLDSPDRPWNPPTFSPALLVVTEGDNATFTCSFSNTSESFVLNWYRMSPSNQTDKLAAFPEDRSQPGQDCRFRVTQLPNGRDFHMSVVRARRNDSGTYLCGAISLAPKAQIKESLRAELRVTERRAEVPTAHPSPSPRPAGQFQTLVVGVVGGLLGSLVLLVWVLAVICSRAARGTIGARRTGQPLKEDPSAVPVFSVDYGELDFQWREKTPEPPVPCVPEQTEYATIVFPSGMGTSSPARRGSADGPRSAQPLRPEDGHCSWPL
Sequence of human PD-1 and human TIGIT co-expressed on Jurkat cells (Jurkat/PD-1/TIGIT cells) (human) (chain, as listed by the source, chain 2 of 2): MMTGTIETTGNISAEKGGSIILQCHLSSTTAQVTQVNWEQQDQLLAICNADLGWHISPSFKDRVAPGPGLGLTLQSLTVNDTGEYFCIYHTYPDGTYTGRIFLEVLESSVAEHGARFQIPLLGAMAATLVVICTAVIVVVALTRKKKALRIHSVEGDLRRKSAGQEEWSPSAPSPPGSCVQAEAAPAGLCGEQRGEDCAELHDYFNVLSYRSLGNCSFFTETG

- MFI at 6.25 nM: 4890 MFI
B1: variant CD155 IgV-Fc P18S/S65W/S67A/L104Q/G111R (Fc fusion)
chain: WPPPGTGDVVVQAPTQVSGFLGDSVTLPCYLQVPNMEVTHVSQLTWARHGESGSMAVFHQTQGPWYAESKRLEFVAARLGAELRNASLRMFGLRVEDEGNYTCQFVTFPQRSRSVDIWLRVLAAAEPKSSDKTHTCPPCPAPELLGGPSVFLFPPKPKDTLMISRTPEVTCVVVDVSHEDPEVKFNWYVDGVEVHNAKTKPCEEQYGSTYRCVSVLTVLHQDWLNGKEYKCKVSNKALPAPIEKTISKAKGQPREPQVYTLPPSREEMTKNQVSLTCLVKGFYPSDIAVEWESNGQPENNYKTTPPVLDSDGSFFLYSKLTVDKSRWQQGNVFSCSVMHEALHNHYTQKSLSLSPGK
